We go through 2 molecules from patent US8889419 (INDIANA UNIVERSITY RESEARCH AND TECHNOLOGY, dated 2014).

Assay [1] concerns the target T1, integrin VLA-4 on HL60 cells (UniProt P13612 34-1032; P05556 21-798).
T1 construct: whole, on cells; HL60 cells express VLA-4 but not VLA-5 by flow cytometry; also called CD49d
The assay is described as follows: adhesion of HL60 cells (VLA-4 positive) to fragment-coated plates.

The target of assay [2] is T1, integrin VLA-4 on HL60 cells. The assay is described as follows: adhesion of HL60 cells to fragment-coated plates.

T1 sequence (P13612 34-1032, chain 1 of 2): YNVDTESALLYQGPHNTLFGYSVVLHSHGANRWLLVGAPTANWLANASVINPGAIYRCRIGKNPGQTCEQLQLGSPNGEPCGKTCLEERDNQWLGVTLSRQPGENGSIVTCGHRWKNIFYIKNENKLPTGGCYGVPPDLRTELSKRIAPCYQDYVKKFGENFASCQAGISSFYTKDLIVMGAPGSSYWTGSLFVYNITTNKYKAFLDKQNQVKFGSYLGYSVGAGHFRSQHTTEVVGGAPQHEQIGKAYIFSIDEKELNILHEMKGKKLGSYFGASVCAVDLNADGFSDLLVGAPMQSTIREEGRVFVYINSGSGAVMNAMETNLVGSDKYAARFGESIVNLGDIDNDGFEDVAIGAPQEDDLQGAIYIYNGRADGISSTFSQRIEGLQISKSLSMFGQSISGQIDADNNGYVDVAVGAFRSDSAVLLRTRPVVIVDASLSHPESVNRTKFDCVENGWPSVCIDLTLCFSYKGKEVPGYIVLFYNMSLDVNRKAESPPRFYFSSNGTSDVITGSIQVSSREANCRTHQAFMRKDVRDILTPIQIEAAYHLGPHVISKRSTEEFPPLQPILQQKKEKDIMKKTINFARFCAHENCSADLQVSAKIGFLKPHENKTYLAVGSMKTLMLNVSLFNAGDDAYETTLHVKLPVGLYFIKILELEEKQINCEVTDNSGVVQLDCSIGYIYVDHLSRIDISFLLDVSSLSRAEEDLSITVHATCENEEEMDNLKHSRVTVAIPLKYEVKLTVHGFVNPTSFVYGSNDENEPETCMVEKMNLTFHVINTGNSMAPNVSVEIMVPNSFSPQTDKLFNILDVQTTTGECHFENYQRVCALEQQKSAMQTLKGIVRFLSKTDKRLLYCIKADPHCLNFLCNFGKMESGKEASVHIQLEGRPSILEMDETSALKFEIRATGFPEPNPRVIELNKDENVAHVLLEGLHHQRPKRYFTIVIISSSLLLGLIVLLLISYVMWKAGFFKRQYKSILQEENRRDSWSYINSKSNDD
T1 sequence (P05556 21-798, chain 2 of 2): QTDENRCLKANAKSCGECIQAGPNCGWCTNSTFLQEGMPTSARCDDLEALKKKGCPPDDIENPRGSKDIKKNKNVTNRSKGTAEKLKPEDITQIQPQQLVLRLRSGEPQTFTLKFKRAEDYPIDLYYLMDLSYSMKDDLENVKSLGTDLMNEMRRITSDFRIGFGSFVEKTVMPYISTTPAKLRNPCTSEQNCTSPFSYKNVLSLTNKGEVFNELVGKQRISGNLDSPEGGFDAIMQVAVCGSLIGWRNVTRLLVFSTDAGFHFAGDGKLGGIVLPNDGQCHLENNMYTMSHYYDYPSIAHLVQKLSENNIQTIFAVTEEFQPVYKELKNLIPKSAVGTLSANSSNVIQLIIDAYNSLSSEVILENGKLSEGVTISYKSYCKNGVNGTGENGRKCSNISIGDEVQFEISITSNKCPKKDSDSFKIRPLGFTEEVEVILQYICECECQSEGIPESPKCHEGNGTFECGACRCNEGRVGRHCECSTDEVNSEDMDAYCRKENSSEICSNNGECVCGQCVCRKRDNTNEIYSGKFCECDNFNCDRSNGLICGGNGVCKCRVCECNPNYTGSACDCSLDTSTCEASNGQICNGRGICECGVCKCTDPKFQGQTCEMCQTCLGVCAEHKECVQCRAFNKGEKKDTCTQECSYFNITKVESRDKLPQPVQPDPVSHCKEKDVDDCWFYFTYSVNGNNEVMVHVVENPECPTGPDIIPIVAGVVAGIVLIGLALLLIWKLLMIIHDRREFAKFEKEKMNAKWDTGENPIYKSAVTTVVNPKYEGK

B1: recombinant fibronectin fragment H-296 (other, human, UniProt P02751 1812-2082, looked up)
chain: AIPAPTDLKFTQVTPTSLSAQWTPPNVQLTGYRVRVTPKEKTGPMKEINLAPDSSSVVVSGLMVATKYEVSVYALKDTLTSRPAQGVVTTLENVSPPRRARVTDATETTITISWRTKTETITGFQVDAVPANGQTPIQRTIKPDVRSYTITGLQPGTDYKIYLYTLNDNARSSPVVIDASTAIDAPSNLRFLATTPNSLLVSWQPPRARITGYIIKYEKPGSPPREVVPRPRPGVTEATITGLEPGTEYTIYVIALKNNQKSEPLIGRKKTDELPQLVTLPHPNLHGPEILDVPST
notes: Expressed in E. coli
For B1, the binding result in assay [1] is “binds”.

B2: recombinant fibronectin fragment H-271 (other, human, UniProt P02751 1812-2082, looked up)
chain: AIPAPTDLKFTQVTPTSLSAQWTPPNVQLTGYRVRVTPKEKTGPMKEINLAPDSSSVVVSGLMVATKYEVSVYALKDTLTSRPAQGVVTTLENVSPPRRARVTDATETTITISWRTKTETITGFQVDAVPANGQTPIQRTIKPDVRSYTITGLQPGTDYKIYLYTLNDNARSSPVVIDASTAIDAPSNLRFLATTPNSLLVSWQPPRARITGYIIKYEKPGSPPREVVPRPRPGVTEATITGLEPGTEYTIYVIALKNNQKSEPLIGRKKT
In the case of B2, in assay [2], the binding result is given as “no binding (tested: 2 µg/cm^2 coating)”.
